Assay [1] has as its target recombinant Glutathione-S-Transferase (GST) tagged PfLDH (Plasmodium falciparum lactate dehydrogenase) (Plasmodium falciparum).
Assay [2] shares this target. The experiment in a line: fluorescence polarisation. (In fluorescence polarisation assays a small probe gives low polarisation when free and higher when bound to something large.)

What is called EC50 is the midpoint of the concentration-response curve. One may read the Kd as the constant that tells how readily two partners part at equilibrium.

Chain of recombinant Glutathione-S-Transferase (GST) tagged PfLDH (Plasmodium falciparum lactate dehydrogenase) (Plasmodium falciparum) (Q27743 whole entry): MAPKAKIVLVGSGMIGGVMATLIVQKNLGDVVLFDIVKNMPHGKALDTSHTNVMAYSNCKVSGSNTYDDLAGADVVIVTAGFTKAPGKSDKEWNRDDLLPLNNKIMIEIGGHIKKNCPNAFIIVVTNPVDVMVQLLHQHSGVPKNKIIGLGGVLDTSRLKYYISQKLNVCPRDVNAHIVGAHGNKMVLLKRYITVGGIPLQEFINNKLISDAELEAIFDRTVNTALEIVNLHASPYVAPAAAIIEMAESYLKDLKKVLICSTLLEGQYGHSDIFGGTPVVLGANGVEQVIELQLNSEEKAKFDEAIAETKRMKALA

HWSAN (not fully specified) [Cy(HWSAN-click), biotin tagged]: in assay [1], the EC50 was 23.4 nM. For the molecule HWSAN (not fully specified) [Cy(HWSAN-click), fluorescein tagged], in assay [2], the Kd stood at 40.6 nM.

The values are drawn from paper PMC4890538.
